{"source": "paper PMC11864512", "target": "Ikoma lyssavirus glycoprotein ectodomain (IKOV-G-ecto) (Ikoma lyssavirus (IKOV))", "test": "crystal structure", "data": [{"substance": "Ikoma lyssavirus glycoprotein ectodomain (IKOV-G-ecto) (domain or fragment)", "values": [{"measurement": "stoichiometry N", "value": 3}]}]}
